Measured values from patent US20220296690A1 (Pieris, published 2022).

Target: T1, Recombinant human CTLA-4 (human, UniProt P16410 36-161, limits assumed)
T1 sequence (looked up): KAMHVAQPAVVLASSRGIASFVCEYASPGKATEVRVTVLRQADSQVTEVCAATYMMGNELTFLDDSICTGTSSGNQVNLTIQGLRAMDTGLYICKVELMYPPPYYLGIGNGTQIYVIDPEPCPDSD
Assay: ELISA; recombinant human CTLA-4 coated at 5 µg/mL, T cell culture supernatant added, detected with rabbit anti-NGAL polyclonal antibody and goat anti-rabbit IgG-HRP
Description: FIG. 2: Detection of functional T-cell secreted CTLA-4 antagonist by ELISA. The supernatant of human peripheral blood T cells, mock-transduced or transduced with pSIN-(NFAT)6-αCTLA-4 and cultured under activatory conditions (cf. Example 1 and FIG. 1) was analyzed for the presence of functionally active CTLA-4 antagonist SEQ ID NO: 28 by ELISA. Recombinant human CTLA-4 was coated on an ELISA plate as described in Example 1, and culture supernatants of transduced and mock-transduced T cells were added. Plate-bound SEQ ID NO: 28 was detected by primary staining with an anti-NGAL polyclonal antibody from the rabbit, secondary staining using goat anti rabbit IgG-HRP and addition of a chromogenic HRP substrate as described in Example 1.
Supernatants were analyzed for the presence of functionally active Anticalin-based CTLA-4 antagonist by ELISA as described in the following: Recombinant human CTLA-4 at a concentration of 5 μg/mL in PBS was added to each well of a 384 well ELISA plate and incubated over night at 4° C. […] Subsequently, rabbit anti-NGAL polyclonal antibody at a concentration of 1 μg/mL in PBS/0.1% (w/v) Tween20/2% (w/v) BSA was added, and bound antibody was detected using goat anti-rabbit IgG-HRP in a dilution of 1:5,000 in PBS/0.1% (w/v) Tween20/2% (w/v) BSA. […] Fluorescence signals in RFU (relative fluorescence units) were measured using a plate fluorescence reader.

B1: Anticalin-based CTLA-4 antagonist with Strep-tag II, mature processed secreted form (SEQ ID NO: 28) (designed binder)
chain: QDSTSDLIPAPPLSKVPLQQNFQDNQFQGKWYVVGLAGNRILRQDQHPMLMYATIYELKEDKSYQVTSVISSHKKCLYPIATFVPGSQPGEFTLGNIKSYGDKVSYLVRVVSTNYNQHAMVFFKHADTNYESFSITLYGRTKELTSELKENFIRFSKSLGLPENHIVFPVPIDQCIDGSAWSHPQFEK
notes: also called anti-CTLA-4 Anticalin; αCTLA-4
Question: Does B1 bind?
Answer: binds
